Experimental data taken from PMC10147923, “Pain-causing stinging nettle toxins target TMEM233 to modulate NaV1.7 function” (Nature Communications, 2023).
Values joined by “and” are separate entries in the source; they are usually repeats but may differ in a detail not shown here. Equal values may be shown once.

Tests used:
NaV1.7 = NaV1.7 (Homo sapiens, UniProt Q15858); type: cell-based
Protocol: To determine recovery from fast inactivation, a 20 ms pulse to 0 mV from a holding potential of −90 mV was used to induce fast inactivation. A subsequent recovery period, ranging from 1 ms to 2216 ms in 50% increments at −90 mV, was followed by a last 20 ms test pulses to 0 mV to determine the time-dependence of recovery from fast inactivation. The proportion of available channels was determined by normalizing peak currents from the last to the first pulse. A two-phase exponential equation was fit to the normalized current, plotted as a function of time, to determine the time constants τ1 and τ2 of recovery from fast inactivation.

NaV1.7/TMEM233 = NaV1.7/TMEM233 (Homo sapiens, UniProt B4DJY2+Q15858); assay: Proximity ligation assay NaV1.7 and TMEM233; conditions: Fig 5e
Protocol: HEK293 cells stably expressing β1/β2 were transiently transfected in T25 flasks using Lipofectamine 2000 with plasmids encoding GFP (0.35 μg) as a transfection control, as well as N-terminal HA-tagged TMEM233 (0.35 μg) and N-terminal FLAG- tagged NaV1.7 (1.0 μg) alone or in combination. The total amount of plasmid DNA/T25 flask was kept constant at 1.7 μg flask using empty pcDNA3.1 plasmid as required. After 24 h incubation at 37 °C, cells were plated on PDL-coated glass coverslips and cultured for a further 24 h. Cells were washed once using sterile phosphate-buffered saline, fixed with 4% formaldehyde for 5 min, permeabilized with 0.1% Triton-X 100 in PSS, blocked using proximity ligation bocking buffer (Sigma DUO82007) and incubated for 1 h with anti-FLAG (1:1000; Sigma F1804) and anti-HA (1:1000; Sigma H6908) antibodies in Duolink antibody diluent. Permeabilized cells were then washed twice with wash buffer A at room temperature for 5 min. Anti-mouse PLUS (Sigma DUO92001) and anti-rabbit MINUS (Sigma DUO92005) probes were diluted 1:5 in Duolink antibody diluent and incubated with cells for 1 h at 37 °C. Cells were then washed with wash buffer A at room temperature for 5 min twice and incubated with ligase diluted 1:40 in ligation buffer. After incubation at 37 °C for 30 mins, cells were washed twice with wash buffer A. Polymerase was diluted 1:80 in amplification buffer and incubated with cells for 100 mins at 37 °C. Cells were subsequently washed with wash buffer B twice for 10 mins and mounted with Duolink In Situ mounting media with DAPI. Cells were imaged on a Zeiss AxioImage M2 with Apotome2 and Axiocam 506 camera. Proximity ligation assay signal (PLA particles) in GFP-positive cells were quantified using ImageJ in collapsed stacks from 3–6 random images obtained per coverslip (Image>Type>8-bit; Image>Adjust>Threshold; Image>Analyze>Analyze Particles). Particles size was set to 0.0003–∞ and circularity to 0.00–1.00. The average number of particles/GFP-positive cells from three independent experiments was analyzed by One-way ANOVA.

NaV1.7/TMEM233, sequence (Q07699 19-218, one chain of several, further chain): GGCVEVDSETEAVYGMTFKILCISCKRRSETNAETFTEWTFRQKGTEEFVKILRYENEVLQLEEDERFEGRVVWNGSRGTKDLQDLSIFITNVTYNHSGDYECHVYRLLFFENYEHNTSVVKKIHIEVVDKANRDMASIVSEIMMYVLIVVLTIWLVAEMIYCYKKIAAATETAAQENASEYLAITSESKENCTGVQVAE
NaV1.7/TMEM233, sequence (Q15858 whole entry, one chain of several): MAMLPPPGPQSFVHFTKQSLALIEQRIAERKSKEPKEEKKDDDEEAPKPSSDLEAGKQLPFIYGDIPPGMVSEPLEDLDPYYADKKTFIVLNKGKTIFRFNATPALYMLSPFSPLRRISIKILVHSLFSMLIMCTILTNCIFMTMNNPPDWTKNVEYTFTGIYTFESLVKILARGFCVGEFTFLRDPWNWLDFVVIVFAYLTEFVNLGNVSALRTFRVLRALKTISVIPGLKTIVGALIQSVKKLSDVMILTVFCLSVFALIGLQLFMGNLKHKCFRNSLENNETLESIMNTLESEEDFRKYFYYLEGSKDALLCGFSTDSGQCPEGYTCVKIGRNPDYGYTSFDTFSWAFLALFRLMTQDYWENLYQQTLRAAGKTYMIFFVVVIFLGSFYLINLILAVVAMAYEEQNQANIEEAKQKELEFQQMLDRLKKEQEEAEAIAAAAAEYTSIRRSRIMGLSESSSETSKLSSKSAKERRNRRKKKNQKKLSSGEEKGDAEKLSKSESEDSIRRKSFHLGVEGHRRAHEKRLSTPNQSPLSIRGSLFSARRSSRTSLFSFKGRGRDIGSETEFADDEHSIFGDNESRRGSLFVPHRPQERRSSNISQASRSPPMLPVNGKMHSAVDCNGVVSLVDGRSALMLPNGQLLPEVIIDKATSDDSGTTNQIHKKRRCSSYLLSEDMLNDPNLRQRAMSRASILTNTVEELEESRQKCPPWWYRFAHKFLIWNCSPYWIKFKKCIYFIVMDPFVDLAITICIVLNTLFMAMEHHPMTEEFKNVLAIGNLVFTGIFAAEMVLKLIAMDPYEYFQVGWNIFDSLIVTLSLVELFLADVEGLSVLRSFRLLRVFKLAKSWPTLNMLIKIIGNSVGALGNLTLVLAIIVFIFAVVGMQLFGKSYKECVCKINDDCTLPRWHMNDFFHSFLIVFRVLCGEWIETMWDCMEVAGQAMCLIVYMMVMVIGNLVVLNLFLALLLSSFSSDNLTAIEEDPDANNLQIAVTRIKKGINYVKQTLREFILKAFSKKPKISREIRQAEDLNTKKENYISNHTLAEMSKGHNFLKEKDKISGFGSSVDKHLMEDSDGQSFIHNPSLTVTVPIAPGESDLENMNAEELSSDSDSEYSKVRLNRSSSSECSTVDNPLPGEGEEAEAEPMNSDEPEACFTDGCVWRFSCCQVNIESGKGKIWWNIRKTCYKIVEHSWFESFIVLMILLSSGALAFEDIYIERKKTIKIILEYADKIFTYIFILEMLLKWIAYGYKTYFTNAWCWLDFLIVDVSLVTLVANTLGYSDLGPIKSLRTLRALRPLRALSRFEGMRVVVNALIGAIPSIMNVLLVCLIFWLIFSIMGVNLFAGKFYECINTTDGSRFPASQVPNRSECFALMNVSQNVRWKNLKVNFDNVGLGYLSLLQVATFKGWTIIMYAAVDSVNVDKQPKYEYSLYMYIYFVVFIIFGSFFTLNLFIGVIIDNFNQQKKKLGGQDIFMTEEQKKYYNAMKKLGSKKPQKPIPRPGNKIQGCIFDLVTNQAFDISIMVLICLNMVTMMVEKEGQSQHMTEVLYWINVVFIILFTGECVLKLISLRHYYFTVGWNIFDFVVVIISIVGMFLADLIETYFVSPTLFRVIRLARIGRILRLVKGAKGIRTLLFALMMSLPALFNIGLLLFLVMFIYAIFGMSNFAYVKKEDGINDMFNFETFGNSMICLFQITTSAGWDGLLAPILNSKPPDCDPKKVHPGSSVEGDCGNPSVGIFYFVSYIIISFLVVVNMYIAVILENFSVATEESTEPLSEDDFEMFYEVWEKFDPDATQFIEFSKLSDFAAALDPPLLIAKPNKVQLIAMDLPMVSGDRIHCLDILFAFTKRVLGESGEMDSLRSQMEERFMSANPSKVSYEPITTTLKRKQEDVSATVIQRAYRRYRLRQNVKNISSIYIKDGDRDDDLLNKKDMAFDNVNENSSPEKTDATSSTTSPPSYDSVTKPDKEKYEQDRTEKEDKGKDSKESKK
NaV1.7, sequence (Q15858 whole entry): as the sequence (Q15858 whole entry, one chain of several) above
NaV1.7, sequence (Q07699 19-218, further chain): as the sequence (Q07699 19-218, one chain of several, further chain) above

B1: TMEM233 35-109 (protein, UniProt B4DJY2 35-109, looked up, fragment)
chain: KNYLWLTIVSCFCPAYPINIVALVFSIMSLNSYNDGDYEGARRLGRNAKWVAIASIIIGLLIIGISCAVHFTRNA
- Tau Fast, individual values (NaV1.7): 8.336 and 5.75 and 6.866 and 4.165 and 7.033 and 6.03 and 5.901
- Tau Fast, mean (NaV1.7): 6.297
- Tau Fast, mean diff. NaV1.7/β1/TMEM233 35-109 vs. NaV1.7/β1 (NaV1.7): 0.2467

B2: HA-TMEM233 (protein, UniProt B4DJY2 1-109, looked up)
Transmembrane protein 233: MSQYAPSPDFKRALDSSPEANTEDDKTEEDVPMPKNYLWLTIVSCFCPAYPINIVALVFSIMSLNSYNDGDYEGARRLGRNAKWVAIASIIIGLLIIGISCAVHFTRNA
modifications: HA tag
- particles/cell, mean (NaV1.7/TMEM233; mean of n = 3): 7.485 particles/cell
- particles/cell (NaV1.7/TMEM233; replicate 1): 4.895 particles/cell
- particles/cell (NaV1.7/TMEM233; replicate 2): 6.562 particles/cell
- particles/cell (NaV1.7/TMEM233; replicate 3): 11 particles/cell
